From patent US20240409634A1 (Janssen / Centocor, published 2024)

Target: human CD33 on CD33-expressing THP-1 cells (human, UniProt P20138 18-364)
Test: cell-based or functional assay

human CD33 on CD33-expressing THP-1 cells, sequence (P20138 18-364): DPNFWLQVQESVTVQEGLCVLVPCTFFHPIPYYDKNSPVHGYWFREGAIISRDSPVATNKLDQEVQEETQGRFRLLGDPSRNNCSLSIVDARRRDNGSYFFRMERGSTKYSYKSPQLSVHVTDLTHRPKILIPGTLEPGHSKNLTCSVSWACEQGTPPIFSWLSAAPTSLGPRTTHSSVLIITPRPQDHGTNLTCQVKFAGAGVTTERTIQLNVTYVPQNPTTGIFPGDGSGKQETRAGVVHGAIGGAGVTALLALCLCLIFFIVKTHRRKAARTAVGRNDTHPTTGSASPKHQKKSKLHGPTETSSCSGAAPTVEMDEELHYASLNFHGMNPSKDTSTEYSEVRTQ

Binder | Cytotox EC50 (pM) E:T 1:1 - 22 hrs [pM] | Cytotox EC50 (pM) E:T 1:20 - 94 hrs [pM]
CD33 antibody JL5 combined with Vdelta2 antibody 6H4 (JL5x6H4), Fab (CD33) x VHH (Vδ2) Fc construct (bispecific antibody, human IgG1, lambda, L234A L235A) heavy: QVQLQESGPGLVKPSETLSLTCSVSGASIRNYYWSWIRQTAGKGLEWLGHIYSTGNIHYNPSLKSRVTMSVDTSNNQFSLKLRSVTAADTAVYYCARDNGAALFDYWGQGTLVTVSSASTKGPSVFPLAPSSKSTSGGTAALGCLVKDYFPEPVTVSWNSGALTSGVHTFPAVLQSSGLYSLSSVVTVPSSSLGTQTYICNVNHKPSNTKVDKKVEPKSCDKTHTCPPCPAPEAAGGPSVFLFPPKPKDTLYITREPEVTCVVVSVSHEDPEVKFNWYVDGVEVHNAKTKPREEQYNSTYRVVSVLTVLHQDWLNGKEYKCKVSNKALPAPIEKTISKAKGQPREPQVYTLPPSREEMTKNQVSLSCAVKGFYPSDIAVEWESNGQPENNYKTTPPVLDSDGSFFLVSKLTVDKSRWQQGNVFSCSVMHEALHNRFTQKSLSLSPGK light: not shown EVQLVESGGGLVQAGGSLRLSCAASGRPFSNYGMGWFRQAPGKKREFVAGISWSGGSTDYADSVKGRFTISRDNAKNTVYLQMNSLKPEDTAVYYCAAVFSGAETAYYPSDDYDYWGQGTQVTVSSEPKSSDKTHTCPPCPAPEAAGGPSVFLFPPKPKDTLYITREPEVTCVVVSVSHEDPEVKFNWYVDGVEVHNAKTKPREEQYNSTYRVVSVLTVLHQDWLNGKEYKCKVSNKALPAPIEKTISKAKGQPREPQVYTLPPSREEMTKNQVSLWCLVKGFYPSDIAVEWESNGQPENNYKTTPPVLDSDGSFFLYSKLTVDKSRWQQGNVFSCSVMHEALHNHYTQKSLSLSPGK | 5.4 | 15
CD33 antibody JL6 combined with Vdelta2 antibody 6H4 (JL6x6H4), Fab (CD33) x VHH (Vδ2) Fc construct (bispecific antibody, human IgG1, lambda, L234A L235A) heavy: QVQLQESGPGLVKPSETLSLTCTVSGGSISSYYWGWIRQPPGKGLEWIGYIYYSGSTNYNPSLKSRVTISVDTSKNQFSLKLSSVTAADTAVYYCARMWEILGFDPWGQGTLVTVSSASTKGPSVFPLAPSSKSTSGGTAALGCLVKDYFPEPVTVSWNSGALTSGVHTFPAVLQSSGLYSLSSVVTVPSSSLGTQTYICNVNHKPSNTKVDKKVEPKSCDKTHTCPPCPAPEAAGGPSVFLFPPKPKDTLMISRTPEVTCVVVSVSHEDPEVKFNWYVDGVEVHNAKTKPREEQYNSTYRVVSVLTVLHQDWLNGKEYKCKVSNKALPAPIEKTISKAKGQPREPQVYTLPPSREEMTKNQVSLSCAVKGFYPSDIAVEWESNGQPENNYKTTPPVLDSDGSFFLVSKLTVDKSRWQQGNVFSCSVMHEALHNRFTQKSLSLSPGK light: not shown EVQLVESGGGLVQAGGSLRLSCAASGRPFSNYGMGWFRQAPGKKREFVAGISWSGGSTDYADSVKGRFTISRDNAKNTVYLQMNSLKPEDTAVYYCAAVFSGAETAYYPSDDYDYWGQGTQVTVSSEPKSSDKTHTCPPCPAPEAAGGPSVFLFPPKPKDTLMISRTPEVTCVVVSVSHEDPEVKFNWYVDGVEVHNAKTKPREEQYNSTYRVVSVLTVLHQDWLNGKEYKCKVSNKALPAPIEKTISKAKGQPREPQVYTLPPSREEMTKNQVSLWCLVKGFYPSDIAVEWESNGQPENNYKTTPPVLDSDGSFFLYSKLTVDKSRWQQGNVFSCSVMHEALHNHYTQKSLSLSPGK | 6.2 | 30
